Assay [1] has as its target T1, full-length isoform 2 ECD of cynomolgus monkey CD96 (His-tagged) (cynomolgus monkey).
T1 construct: also called His-tagged isoform 2 of cynomolgus monkey CD96; cyno CD96 extracellular domain isoform 2
T1 chain: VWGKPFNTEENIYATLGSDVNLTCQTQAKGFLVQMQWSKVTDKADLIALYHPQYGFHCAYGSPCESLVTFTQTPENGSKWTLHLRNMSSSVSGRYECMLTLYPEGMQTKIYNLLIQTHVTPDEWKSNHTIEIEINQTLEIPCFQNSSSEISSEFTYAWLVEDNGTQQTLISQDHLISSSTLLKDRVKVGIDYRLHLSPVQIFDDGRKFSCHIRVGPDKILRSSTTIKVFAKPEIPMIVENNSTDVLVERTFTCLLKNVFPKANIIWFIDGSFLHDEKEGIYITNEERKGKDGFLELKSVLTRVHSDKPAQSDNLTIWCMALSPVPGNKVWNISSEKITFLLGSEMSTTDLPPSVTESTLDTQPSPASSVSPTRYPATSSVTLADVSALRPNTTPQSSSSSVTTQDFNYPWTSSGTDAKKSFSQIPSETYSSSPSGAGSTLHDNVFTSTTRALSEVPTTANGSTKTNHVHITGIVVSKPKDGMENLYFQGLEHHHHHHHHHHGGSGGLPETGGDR
The assay is described as follows: SPR Biacore T200, geomean of experiments #1 and #2. As to the method: (§1) Briefly, surface plasmon resonance experiments were performed using a Biacore T200 instrument, and the association rate (kₐ), dissociation rate (kd), and dissociation constant (KD) were calculated from each experiment using a 1:1 binding model with Biacore T200 Evaluation Software.
Multispecific molecules were captured using a 30-sec injection at a flow rate of 10 μl/min to reach about 350 resonance units (RUs). […] The sensor chip was regenerated between cycles with two 30-sec injections of 10 mM glycine, pH 1.5. Sensorgrams were evaluated and fit to a simple Langmuir 1:1 interaction model using the global data analysis option of BIAevaluation 3.0 software. Data quality was verified by visually inspecting deviations and curve fitting, and by evaluating the parameters of Rₘₐₓ, Chi2, and Tc.

Assay [2] addresses T2, full-length human FcγRIIIa variant V/V expressed on CHO cells (human, UniProt P08637 17-254).
T2 construct: whole, on cells; also called human FcγRIIIa-CHO (variant V/V); human FcγRIIIa (V/V) CHO cells
The assay is described as follows: flow cytometry, human FcγRIIIa (V/V) CHO cells, 2 experiments. As to the method: For the antibody binding assay, a frozen aliquot of human FcγRIIIa-CHO cells (variant V/V or variant F/F) was thawed at 37° C. and then transferred to a tube containing DPBS supplemented with 0.5% Bovine Serum Albumin and 0.05% Sodium Azide (FACS Buffer). Cells were centrifuged at 300 g for five minutes. The supernatant was discarded, and cells resuspended in FACS buffer were seeded in a 96-well U-bottom tissue culture plate at a density of 2×10⁵ cells per well in 50 μL. In a separate microplate, a 2× concentrated intermediate stock of each antibody was prepared. Antibodies were serially diluted 1-to-4 in FACS buffer. A total of 11 working dilutions ranging from 60 μg/mL to 0.000057 μg/mL were prepared. Fifty microlitres of each dilution were then transferred to the microplate containing human FcγRIIIa-CHO (variant V/V or variant F/F) cells. The cells were then incubated for 45 minutes at 4° C. […] After a 30-minute incubation on ice, the cells were washed twice with cold FACS Buffer, and the cells were analyzed by flow cytometry (BD LSR Fortessa Flow Cytometer). The data were analyzed using the FlowJo software by sequentially gating the FSC-A vs. SSC-A, and SSC-H vs. SSC-A. Mean fluorescence intensity (MFI) values for PE were calculated, and the data were plotted by GraphPad Prism software.
For orientation: Flow cytometry measures light scatter and fluorescence of single cells or particles in a stream.

The target in assay [3] is T3, wild type full-length cynomolgus monkey TIGIT expressed on CHO cells (cynomolgus monkey, UniProt A0A7N9I9V4 89-312).
T3 construct: whole, on cells; also called cynomolgus TIGIT-CHO cells
The assay is described as follows: flow cytometry, cynomolgus TIGIT CHO cells, geomean of 2 experiments.

Assay [4] deals with T4, wild type full-length human TIGIT expressed on cells (human, UniProt Q495A1 22-244).
T4 construct: whole, on cells; also called human TIGIT-CHO; human TIGIT CHO cells
T4 sequence (looked up): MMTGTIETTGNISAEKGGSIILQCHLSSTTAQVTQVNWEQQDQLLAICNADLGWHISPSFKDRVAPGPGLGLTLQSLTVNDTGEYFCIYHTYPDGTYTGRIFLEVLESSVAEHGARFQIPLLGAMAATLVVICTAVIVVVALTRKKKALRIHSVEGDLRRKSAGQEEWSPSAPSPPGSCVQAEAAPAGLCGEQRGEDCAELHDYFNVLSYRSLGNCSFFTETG
The assay is described as follows: flow cytometry, blocking of human CD155-Fc-PE binding to CHO cells expressing human TIGIT. As to the method:
A 4× concentrated intermediate stock of each antibody was prepared in a microplate. Antibodies were serially diluted 1-to-4 in FACS buffer. […] Lastly, 25 μL of human TIGIT-CHO cells, prepared as described above, were added to each well. After a 30-minute incubation on ice, the cells were washed twice with cold FACS Buffer, and the cells were analyzed by flow cytometry (BD LSR Fortessa Flow Cytometer). The data were analyzed using the FlowJo software by sequentially gating on the FSC-A vs. SSC-A and SSC-H vs. SSC-A. Mean fluorescence intensity (MFI) values for PE were calculated, and the data were plotted by GraphPad Prism software and analyzed as described above.

In assay [5] the target is T5, full-length ECD of human TIGIT (His-tagged) (human).
T5 construct: also called His-tagged human TIGIT; human TIGIT extracellular domain
T5 chain: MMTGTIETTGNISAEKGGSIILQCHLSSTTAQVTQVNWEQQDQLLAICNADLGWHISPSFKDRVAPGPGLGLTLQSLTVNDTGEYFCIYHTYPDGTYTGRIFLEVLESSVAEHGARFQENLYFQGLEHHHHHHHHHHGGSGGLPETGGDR
The experiment in a line: SPR Biacore T200, geomean of experiments #1 and #2. As to the method:
as §1
Multispecific molecules were captured using a 30-sec injection at a flow rate of 10 μl/min to reach about 1000 resonance units (RUs). […] The sensor chip was regenerated between cycles with two 30-sec injections of 10 mM glycine, pH 1.5. Sensorgrams were evaluated and fit to a simple Langmuir 1:1 interaction model using the global data analysis option of BIAevaluation 3.0 software. Data quality was verified by visually inspecting deviations and curve fitting, and by evaluating the parameters of Rₘₐₓ, Chi2, and Tc.

Assay [6] has as its target CD8+ T cells (CD3-stimulated; Day 4). The assay is described as follows: flow cytometry on activated primary human T cells, gated CD8+, donor 2; PE anti-human IgG detection.
Description: A total of 8 dilutions ranging from 50 μg/mL to 0.000005 μg/mL were prepared. After four days, the sample plates were centrifuged for two minutes at 2000 rpm, and supernatants were discarded. Samples were blocked with FcγR Block prepared in FACs buffer at 5 μL per 100 μL test for 10 minutes. Sample plates were then centrifuged for two minutes at 2000 rpm, and the supernatant was discarded. […] Sample plates were incubated for 30 minutes at 4° C. Cells were washed by addition of cold sample buffer and centrifuged for two minutes at 2000 rpm, and the supernatant was discarded. This wash was repeated once.
Cells were then resuspended in a cocktail of fluorescently labeled antibodies. A cocktail of fluorescently labeled antibodies sufficient for all samples was prepared in FACs buffer. 100 μL of antibody per well was then added to a round-bottom 96-well plate. The sample plate was incubated for 20 minutes on ice. Cells were washed by addition of cold sample buffer, centrifuged for two minutes at 2000 rpm, and supernatants discarded. […]
Antibody binding was measured by flow cytometry using a BD LSR Fortessa Flow Cytometer. […] 100,000 events were recorded for each sample. Samples were analyzed by sequentially gating on the following populations: FSC-A vs. SSC-A, FSC-H vs. FSC-A, SSC-A vs. LIVE/DEAD, CD4 vs. CD8, and SSC vs. CD25. Mean fluorescence intensity (MFI) was calculated.

T2 sequence (P08637 other isoform, or with tags, fused parts or gaps mutant limits assumed): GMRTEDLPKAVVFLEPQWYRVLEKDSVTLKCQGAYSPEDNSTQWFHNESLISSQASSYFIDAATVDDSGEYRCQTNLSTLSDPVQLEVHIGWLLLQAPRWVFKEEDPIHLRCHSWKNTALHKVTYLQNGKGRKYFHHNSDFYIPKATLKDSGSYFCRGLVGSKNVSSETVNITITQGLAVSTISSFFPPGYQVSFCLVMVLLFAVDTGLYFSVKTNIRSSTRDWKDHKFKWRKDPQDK
T3 sequence (A0A7N9I9V4 entry or part of it): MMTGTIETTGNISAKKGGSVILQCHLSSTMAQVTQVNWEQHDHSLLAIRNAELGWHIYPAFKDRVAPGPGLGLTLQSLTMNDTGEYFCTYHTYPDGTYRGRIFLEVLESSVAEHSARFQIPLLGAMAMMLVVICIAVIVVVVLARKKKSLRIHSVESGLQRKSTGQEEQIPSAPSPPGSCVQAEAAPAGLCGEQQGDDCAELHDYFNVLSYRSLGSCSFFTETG

B1: anti-TIGIT×CD96 multispecific molecule BA123 (bispecific antibody, human IgG1, kappa, lambda)
heavy 1: QVQLVQSGAEVKKPGASVKVSCKASGYTFTSYGISWVRQAPGQGLEWMGWISAYNANTNYAQKLQGRVTMTTDTSTSTAYMELRSLRSDDTAVYYCARSAGVLGGMDVWGRGTLVTVSSASTKGPSVFPLAPSSKSTSGGTAALGCLVKDYFPEPVTVSWNSGALTSGVHTFPAVLQSSGLYSLSSVVTVPSSSLGTQTYICNVNHKPSNTKVDKRVEPKSCDKTHTCPPCPAPELLGGPDVFLFPPKPKDTLMISRTPEVTCVVVDVSHEDPEVKFNWYVDGVEVHNAKTKPREEQYNSTYRVVSVLTVLHQDWLNGKEYKCKVSNKALPAPIEKTISKAKGQPREPQVYTLPPSREEMTKNQVSLSCAVKGFYPSDIAVEWESNGQPENNYKTTPPVLDSDGSFFLVSKLTVDKSRWQQGNVFSCSVMHEALHNHYTQKSLSLSPG
light 1: not shown
heavy 2: EVQLVQSGAEVKKPGSSVKVSCKASGYTFASYGISWVRQAPGQGLEWMGGITPFFNRVDVAEKFQGRVTITADKSTSTAYIELSSLRSEDTAVYYCARDLRRGGVGDAFDIWGRGTLVTVSSASTKGPSVFPLAPSSKSTSGGTAALGCLVKDYFPEPVTVSWNSGALTSGVHTFPAVLQSSGLYSLSSVVTVPSSSLGTQTYICNVNHKPSNTKVDKRVEPKSCDKTHTCPPCPAPELLGGPDVFLFPPKPKDTLMISRTPEVTCVVVDVSHEDPEVKFNWYVDGVEVHNAKTKPREEQYNSTYRVVSVLTVLHQDWLNGKEYKCKVSNKALPLPEEKTISKAKGQPREPQVYTLPPSREEMTKNQVSLWCLVKGFYPSDIAVEWESNGQPENNYKTTPPVLDSDGSFFLYSKLTVDKSRWQQGNVFSCSVMHEALHNHYTQKSLSLSPG
light 2: QSALTQPRSVSGSPGQSVTISCTGTSPDVGSHAYRSWYQQHPGKAPKLMIYEVSYRPSGVSNRFSGSKSGNTASLTISGLQAEDEADYYCSSYPPSSATVFGAGTKLTVLGQPKAAPSVTLFPPSSEELQANKATLVCLISDFYPGAVTVAWKADSSPVKAGVETTTPSKQSNNKYAASSYLSLTPEQWKSHRSYSCQVTHEGSTVEKTVAPTEC
notes: copies: 1 + 1 + 1 + 1
As to B1, in assay [1], the Kd came to 45.3 nM.

B2: anti-TIGIT monospecific antibody BA148 (antibody, human IgG1, lambda)
heavy: EVQLVQSGAEVKKPGSSVKVSCKASGYTFASYGISWVRQAPGQGLEWMGGITPFFNRVDVAEKFQGRVTITADKSTSTAYIELSSLRSEDTAVYYCARDLRRGGVGDAFDIWGRGTLVTVSSASTKGPSVFPLAPSSKSTSGGTAALGCLVKDYFPEPVTVSWNSGALTSGVHTFPAVLQSSGLYSLSSVVTVPSSSLGTQTYICNVNHKPSNTKVDKRVEPKSCDKTHTCPPCPAPELLGGPDVFLFPPKPKDTLMISRTPEVTCVVVDVSHEDPEVKFNWYVDGVEVHNAKTKPREEQYNSTYRVVSVLTVLHQDWLNGKEYKCKVSNKALPLPEEKTISKAKGQPREPQVYTLPPSREEMTKNQVSLTCLVKGFYPSDIAVEWESNGQPENNYKTTPPVLDSDGSFFLYSKLTVDKSRWQQGNVFSCSVMHEALHNHYTQKSLSLSPGK
light: B1 light 2
notes: IgG1; also called anti-TIGIT IgG1 antibody BA148
Regarding B2, the EC50 in assay [2] amounted to 0.0455 µg/mL; in assay [3], 0.0534 µg/mL. The “IC50 (read off the curve)” value in assay [4] was ~0.01 µg/mL.

B3: anti-TIGIT×CD96 multispecific molecule BA127 (bispecific antibody, human IgG1, kappa, lambda)
heavy 1: QVQLVQSGAEVKKPGASVKVSCKASGYTFTTYALHWVRQAPGQRLEWMGWINTGSGDTKYSQKFQGRVTITRDTSASTAYMELSSLRSEDTAVYYCARSLGVYYGMDVWGQGTLVTVSSASTKGPSVFPLAPSSKSTSGGTAALGCLVKDYFPEPVTVSWNSGALTSGVHTFPAVLQSSGLYSLSSVVTVPSSSLGTQTYICNVNHKPSNTKVDKRVEPKSCDKTHTCPPCPAPELLGGPDVFLFPPKPKDTLMISRTPEVTCVVVDVSHEDPEVKFNWYVDGVEVHNAKTKPREEQYNSTYRVVSVLTVLHQDWLNGKEYKCKVSNKALPAPIEKTISKAKGQPREPQVYTLPPSREEMTKNQVSLSCAVKGFYPSDIAVEWESNGQPENNYKTTPPVLDSDGSFFLVSKLTVDKSRWQQGNVFSCSVMHEALHNHYTQKSLSLSPG
light 1: not shown
heavy 2: B1 heavy 2
light 2: B1 light 2
notes: Anti-CD96 arm = BA139, anti-TIGIT arm = BA150; copies: 1 + 1 + 1 + 1
With B3, in assay [5], the Kd was 0.59 nM. Also, the “EC50 (read off the curve)” value in assay [6] is ~0.06 µg/mL.

A word on the Kd: it is the free concentration of one partner at which half of the binding sites on the other are occupied at equilibrium, for simple one-to-one binding. As usually defined, the EC50 is the concentration giving half of the maximal effect. For orientation: EC50 (read off the curve) means the concentration that produces a half-maximal response.

The values above are taken from patent US20240141039A1 (AGENUS, published 2024).
